In patent US10213494B2, “Treatment of synucleinopathies” (The Brigham and Women's Hospital, Inc., priority 2007, dated 2019):

Key:
GBA = conditions: Lieberman R et al., (2007); cited from earlier work
[1] = tested on: α-synuclein protein in MES23.5 cells; assay: Western blot of α-synuclein in co-transfected MES23.5 cells; type: cell-based, human; conditions: 24 hours
Protocol: Cells were transfected with 0, 0.25, 0.5, 1, 5, and 10 μg (per 10 cm dish) of plasmid. 24 hours later, cells were washed with Tris-buffered saline and lysed in 140 mM NaCl, 50 mM Tris-Hcl, pH 8.0, 1 mM EDTA, 0.5% Triton-X100, and 1× protease inhibitors. Lysates were centrifuged at 100,000×g for 30 min at 4° C.; the top 2/3 of supernatants were removed and frozen in siliconized tubes at −80° C. Samples were run on SDS/PAGE, using 1 mM DTT as the reducing agent. Expression of the αS protein was confirmed at 24 hours post-transfection by Western blotting, where cell lysates were probed with a monoclonal antibody against αS protein (syn-1 antibody, BD Transduction Labs).
MES23.5 cells were transfected with 0.5 μg αS-encoding SNCA cDNA per 10 cm dish plus either 1.25, 2.5 or 5 μg (low, medium, or high) GBA-encoding cDNA in the absence or presence of 5 μg of Prosaposin-encoding cDNA. All arms of the experiment were balanced up to a total of 10.5 μg cDNA per 10 cm dish using empty vector cDNA. The GBA- and Prosaposin-encoding cDNA plasmids under a CMV promoter, as well as the pCMV-XL5 empty vector were purchased from OriGene Technologies, Inc (clones had been fully sequence-verified after isolation and a maxiprep). 24 hours later, cells were lysed and probed for GBA and αS protein levels. The upper panel in of FIG. 2B3 is a representation of a Western Blot indicating expression of GBA protein in the absence and presence of co-transfected prosaposin. GBA was probed using the monoclonal antibody 8E4. GBA over-expression occurred in a slightly gene-dosage dependent way in the absence of prosaposin. In the presence of prosaposin over-expression, the GBA signal itself was decreased. […]

[2] = tested on: α-synuclein protein (wild-type, human) in MES23.5 cells; assay: Sandwich ELISA of intracellular α-synuclein in MES23.5 cells co-transfected with wild-type human SNCA cDNA and lysosomal enzyme cDNA; type: cell-based; conditions: GBA variant plasmid 5 μg per 10 cm dish + 0.5 μg SNCA cDNA, 24 hours after transfection, no prosaposin; mean+/−sem
Protocol: Sera from six rabbits were raised and affinity-purified at Open Biosystems, Inc. (openbiosystems.com) against recombinant, full-length human αS. Recombinant αS had been HPLC- and MS-characterized and subjected to amino acid composition and protein concentration analyses. For ELISA, 384-well MaxiSorp plates (Nunc, Inc) were coated with 50 μl/well capturing polyclonal Ab (hSA-2) diluted in coating buffer (NaHCO3 with 0.2% NaN3, pH 9.6). Following washes with PBS/0.05% Tween-20 (PBS-T), plates were blocked for 2 hours at 37° C. in blocking buffer (1.125% fish skin gelatin; PBS-T). After 4 washes, samples were loaded and incubated at 4° C. for 12 hours. Biotinylated Syn-1 mAb (as the assaying Ab) was generated using 200 μg Sulfo-NHS-LC Biotin (Pierce), diluted in blocking buffer and added to the plate for 2 hours at 37° C. Following 4 washes, ExtrAvidin phosphatase (Sigma) diluted in blocking buffer was applied for 1 hr at 37° C. Color development was carried out by using Fast-p-Nitrophenyl Phosphate (Sigma) and monitored kinetically at OD 405 nm every 5 minutes for up to 60 minutes.
To optimize a ‘DNA: LIPOFECTAMINE® 2000’ ratio with low cell toxicity, MES23.5 cells were transfected with either 0.25, 0.5 or 1 μg αS-encoding, wild-type, human SNCA cDNA plus empty vector cDNA up to a total of 5.5 μg DNA per 10 cm dish. 24 hours after transfection, cell lysates were harvested as described above. For serial dilutions of cell lysates, blocking buffer containing 0.5% lysate from vector-transfected wells was used as diluent, which was also used to create the blank and the corresponding standard curve of recombinant human αS. Saturation kinetics were examined for identification of time point(s) where standards and sample dilutions were in the log phase.
MES cells were transfected with 0.5 μg per 10 cm dish of αS-encoding SNCA cDNA-carrying plasmid, plus 5 μg per 10 cm dish of wild-type or mutant, human GBA-encoding plasmid. The GBA variants used were wild type, N370S, D409H, L444P, E235A, and E340A. These 5 GBA mutants were created by site-directed mutagenesis, using the Quickchange® kit (Stratagene), and sequence-verified. The N370S, D409H and L444P are known to occur (in the homozygous or compound heterozygous state) in Gaucher disease in the heterozygous state in Parkinson Disease patients and/or patients with dementia with Lewy bodies. The E235A and E340A mutant GBA proteins are not known to occur in people.
24 hours after transfection, MES cells were lysed as described above and all lysates were analyzed by ELISA. […] This is in contrast to the result observed in Example 5 above. The observed discrepancy can reflect the differences in total DNA transfected in the two paradigms (FIG. 2B; FIG. 2C versus FIG. 4), thereby leading to changes in the DNA:LIPOFECTAMINE® 2000 ratio, and in the role of co-expressed prosaposin (saposin C). It is therefore conceivable that wild-type GBA can have variable effects on αS levels in these MES23.5 cells, depending on the rate of αS import into lysosomes and the composition as well as activation state of more than one lysosomal enzyme.
MES23.5 cells were transfected with 0.5 μg per 10 cm dish of an αS-encoding, wild-type, human SNCA cDNA-carrying plasmid (referred to as MES-hSNCA WT cells in the Western blot shown in FIG. 6), plus either 1.25, 2.5 or 5 μg per 10 cm dish of a human Cathepsin D-encoding CTSD cDNA plasmid, which was purchased from OriGene Technologies, Inc., and was under the control of a CMV promoter. The Cathepsin D clone was fully sequence-verified after isolation and maxiprep. Each transfection arm was balanced with empty vector DNA up to a total of 5.5 μg DNA per 10 cm dish. 24 hours after transfection, cells were lysed, and the resulting lysates were analyzed by the sandwich ELISA described herein. […]

MES-syn cells = assay: LDH release assay of cellular integrity; type: cell-based, rodent; conditions: enzyme cDNA 5 μg/10 cm dish, versus control vector transfected cells
Protocol: To confirm that the effect of Cathepsin D on lowering of αS in MES23.5 cells was specific and was not caused by a general decrease in cellular metabolism and integrity, the MTT and LDH assays were performed on MES-syn cells that had been co-transfected with the highest amount of Cathepsin D-encoding cDNA (5 μg/10 cm dish). Lysis of cells with 0.1% Triton-X® 100 served as a positive control, representing maximal cell death.
To confirm that the effect of Cathepsin F on lowering of αS was specific and was not caused by a general decrease in cellular integrity, the LDH assay was performed on MES-syn cells that had been co-transfected with Cathepsin F-encoding CTSF cDNA (5 μg/10 cm dish). Lysis of cells with 0.1% Triton-X 100 served as a positive control for cell toxicity, promoting maximal cell death.

[3] = tested on: α-synuclein protein (wild-type, human) in MES23.5 cells; assay: Sandwich ELISA of intracellular α-synuclein in MES23.5 cells co-transfected with wild-type human SNCA cDNA and lysosomal enzyme cDNA; type: cell-based; conditions: cathepsin F cDNA 5 μg/10 cm dish, 24 hours, n=3

## OC[C@H]1CNC[C@@H](O)[C@@H]1O [isofagomine]
GBA
  effect on GBA activity: increase GBA activity in mice and humans

B1: wild-type GBA: human acid-beta-glucocerebrosidase expressed from GBA-encoding cDNA plasmid under a CMV promoter (protein, UniProt P04062 40-536, looked up)
Lysosomal acid …: ARPCIPKSFGYSSVVCVCNATYCDSFDPPTFPALGTFSRYESTRSGRRMELSMGPIQANHTGTGLLLTLQPEQKFQKVKGFGGAMTDAAALNILALSPPAQNLLLKSYFSEEGIGYNIIRVPMASCDFSIRTYTYADTPDDFQLHNFSLPEEDTKLKIPLIHRALQLAQRPVSLLASPWTSPTWLKTNGAVNGKGSLKGQPGDIYHQTWARYFVKFLDAYAEHKLQFWAVTAENEPSAGLLSGYPFQCLGFTPEHQRDFIARDLGPTLANSTHHNVRLLMLDDQRLLLPHWAKVVLTDPEAAKYVHGIAVHWYLDFLAPAKATLGETHRLFPNTMLFASEACVGSKFWEQSVRLGSWDRGMQYSHSIITNLLYHVVGWTDWNLALNPEGGPNWVRNFVDSPIIVDITKDTFYKQPMFYHLGHFSKFIPEGSQRVGLVASQKNDLDAVALMHPDGSAVVVVLNRSSKDVPLTIKDPAVGFLETISPGYSIHTYLWRRQ
[1]; GBA cDNA 1.25, 2.5 or 5 μg + 0.5 μg SNCA cDNA, absence of co-transfected prosaposin
  α-synuclein protein level by Western blot: lowered the co-expressed α-synuclein protein levels at the largest amount of co-transfected GBA cDNA
[1]; GBA cDNA low/medium/high with 5 μg Prosaposin-encoding cDNA
  α-synuclein protein level by Western blot: strong decrease in α-synuclein protein levels at even the lower concentrations
[2]
  intracellular α-synuclein level, % of vector cDNA control levels: 109.7+/−9.88%

B2: cathepsin F: human lysosomal cysteine protease expressed from CTSF plasmid under a CMV promoter (protein, UniProt Q9UBX1 271-484, looked up)
Cathepsin F: APPEWDWRSKGAVTKVKDQGMCGSCWAFSVTGNVEGQWFLNQGTLLSLSEQELLDCDKMDKACMGGLPSNAYSAIKNLGGLETEDDYSYQGHMQSCNFSAEKAKVYINDSVELSQNEQKLAAWLAKRGPISVAINAFGMQFYRHGISRPLRPLCSPWLIDHAVLLVGYGNRSDVPFWAIKNSWGTDWGEKGYYYLHRGSGACGVNTMASSAVVD
MES-syn cells
  LDH signal: less than or equal to that of control vector transfected cells
[3]
  intracellular α-synuclein level, % of control levels: 51.7+/−14.1%
